Assay results from article PMC6374739.

B1: mCherry-UVR8-GFP (wild-type UV … LOCUS 8, from the pFRET-NcCg-DEST vector) [Arabidopsis thaliana] / itself (parent)
chain: MAEDMAADEVTAPPRKVLIISAGASHSVALLSGDIVCSWGRGEDGQLGHGDAEDRPSPTQLSALDGHQIVSVTCGADHTVAYSQSGMEVYSWGWGDFGRLGHGNSSDLFTPLPIKALHGIRIKQIACGDSHCLAVTMEGEVQSWGRNQNGQLGLGDTEDSLVPQKIQAFEGIRIKMVAAGAEHTAAVTEDGDLYGWGWGRYGNLGLGDRTDRLVPERVTSTGGEKMSMVACGWRHTISVSYSGALYTYGWSKYGQLGHGDLEDHLIPHKLEALSNSFISQISGGWRHTMALTSDGKLYGWGWNKFGQVGVGNNLDQCSPVQVRFPDDQKVVQVSCGWRHTLAVTERNNVFAWGRGTNGQLGIGESVDRNFPKIIEALSVDGASGQHIESSNIDPSSGKSWVSPAERYAVVPDETGLTDGSSKGNGGDISVPQTDVKRVRI

Key:
Settings in all cases: with itself, read off a plot
[1] = variants of: B1; test: FRET by acceptor photobleaching in tobacco leaves, pFRET-NcCg-DEST vector
[2] = variants of: B1; test: FRET (sensitized emission ratio mCherry(488)/GFP(488)) in tobacco leaves, pFRET-NcCg-DEST vector
[3] = variants of: B1; test: intermolecular FRET (sensitized emission ratio mCherry(488)/GFP(488)) in tobacco leaves, pFRET-2in1-DEST vector
[4] = +UV-B: 3 μmol m–2 s–1 broadband UV-B for 1 hour, parent: 11
[5] = +UV-B: 3 μmol m–2 s–1 broadband UV-B for 1 hour, parent: 0.5
[6] = +UV-B: 3 μmol m–2 s–1 broadband UV-B for 1 hour, parent: 0.44

| Variant | response [1, 4] [%] | response ([1]; -UV-B, parent: 18) [%] | response [2, 5] | response ([2]; -UV-B, parent: 0.56) | response [3, 6] | response ([3]; -UV-B, parent: 0.5) |
| --- | --- | --- | --- | --- | --- | --- |
| MAEDMAADEVTAPPRKVLIISAGASHSVALLSGDIVCSWGRGEDGQLGHGDAEDRPSPTQLSALDGHQIVSVTCGADHTVAYSQSGMEVYSWGWGNFGRLGHGNSSNLFTPLPIKALHGIRIKQIACGDSHCLAVTMEGEVQSWGRNQNGQLGLGDTEDSLVPQKIQAFEGIRIKMVAAGAEHTAAVTEDGDLYGWGWGRYGNLGLGDRTDRLVPERVTSTGGEKMSMVACGWRHTISVSYSGALYTYGWSKYGQLGHGDLEDHLIPHKLEALSNSFISQISGGWRHTMALTSDGKLYGWGWNKFGQVGVGNNLDQCSPVQVRFPDDQKVVQVSCGWRHTLAVTERNNVFAWGRGTNGQLGIGESVDRNFPKIIEALSVDGASGQHIESSNIDPSSGKSWVSPAERYAVVPDETGLTDGSSKGNGGDISVPQTDVKRVRI [chain 1 D96N D107N] | 9.7 | 9.6 | 0.43 | 0.43 | 0.33 | 0.33 |
| MAEDMAADEVTAPPRKVLIISAGASHSVALLSGDIVCSWGRGEDGQLGHGDAEDRPSPTQLSALDGHQIVSVTCGADHTVAYSQSGMEVYSWGWGDFGRLGHGNSSDLFTPLPIKALHGIRIKQIACGDSHCLAVTMEGEVQSWGRNQNGQLGLGDTEDSLVPQKIQAFEGIRIKMVAAGAEHTAAVTEDGDLYGWGWGRYGNLGLGDRTDRLVPERVTSTGGEKMSMVACGWRHTISVSYSGALYTYGWSKYGQLGHGDLEDHLIPHKLEALSNSFISQISGGFRHTMALTSDGKLYGWGWNKFGQVGVGNNLDQCSPVQVRFPDDQKVVQVSCGWRHTLAVTERNNVFAWGRGTNGQLGIGESVDRNFPKIIEALSVDGASGQHIESSNIDPSSGKSWVSPAERYAVVPDETGLTDGSSKGNGGDISVPQTDVKRVRI [chain 1 W285F] | 17 | 17 | 0.58 | 0.59 | 0.51 | 0.5 |
